The results in this text go back to PMC4887326, “Structural insights into the regulatory mechanism of the Pseudomonas aeruginosa YfiBNR system” (Protein & Cell, 2016).

B1: YfiR (residues 35–190), co-expressed with YfiB (domain or fragment, P. aeruginosa, UniProt Q9I4L4 35-190, looked up)
chain: DDARTSIEQRSNAVSQVLLGIFSYVRWPKEPAVLQLCVVGPTEYADGLLRGMVQANGRRVHAERRAVDNPDLGTLCNVIYLGVVDERERQQVFRSLAGHPVLSISERGTECSVGSMFCLNVGGPRITFEANLDSIARSGVRVHPSVLKLARRQATP
notes: YfiR, P. aeruginosa, residues 35-190, lacking the signal peptide; ORF1 of pETDuet-1 with N-terminal His6 and a TEV cleavage site; Dimer in the 2:2 complex; only the Cys145-Cys152 disulfide is well formed there; not shown: His6, N-terminal, kept

Data set [1] deals with the molecule itself. Kind of data set: crystal structure; YfiB^L43P-YfiR complex, space group P1, 1.78 Å, 2:2 heterotetramer in the asymmetric unit; 0.2 mol/L ammonium sulfate, 0.1 mol/L Tris-HCl pH 8.0, 12% PEG 8000, 293 K.
Data set [2] deals with the molecule itself. The data set is described as follows: crystal structure; VB6-bound (soaked, 2.4 Å) and Trp-bound (co-crystallised, 2.5 Å) YfiR, space group P4_3 2_1 2, a dimer in the asymmetric unit.
Data set [3] deals with the molecule itself. The data set is described as follows: AUC; sedimentation velocity, 25°C, samples at OD280 of 0.7 in 20 mmol/L Tris pH 8.0, 200 mmol/L NaCl, 60,000 rpm; dimer to monomers.
The target in data set [4] is B1. The data set is described as follows: crystal structure; YfiB^L43P-YfiR complex, space group P1, 1.78 Å, 2:2 heterotetramer in the asymmetric unit; 0.2 mol/L ammonium sulfate, 0.1 mol/L Tris-HCl pH 8.0, 12% PEG 8000, 293 K. As to conditions: both partners purified.

As usually defined, the stoichiometry N is a count of units in the complex or per binding partner.

Consider B1, for which the binding result in data set [1] is listed as “binds”.

B2: YfiR (residues 35–190), purified alone (domain or fragment, P. aeruginosa, UniProt Q9I4L4 35-190, looked up)
chain: DDARTSIEQRSNAVSQVLLGIFSYVRWPKEPAVLQLCVVGPTEYADGLLRGMVQANGRRVHAERRAVDNPDLGTLCNVIYLGVVDERERQQVFRSLAGHPVLSISERGTECSVGSMFCLNVGGPRITFEANLDSIARSGVRVHPSVLKLARRQATP
notes: YfiR, P. aeruginosa, residues 35-190, lacking the predicted N-terminal periplasmic localization signal peptide; also called native YfiR; not shown: His6, N-terminal, cleaved
Consider B2, for which the binding result in data set [2] is “binds”.

B3: YfiB (residues 34–168), wild type (domain or fragment)
chain: GLSAEQIAVLQEQGFELRDEGWEFGMSSKVLFGNNLDRLNPDSRNTLTKIARALLAVDIDKVRLEGHTDNYGDEGYNQKLSERRAESVAAVFREAGMPAANIEVRGLGMSKPVADNKTRAGRSENRRVAIIVPAE
notes: YfiB, P. aeruginosa, residues 34-168, lacking the signal peptide (residues 1-26) and periplasmic residues 27-33; ORF1 of pETDuet-1 with N-terminal His6 and a TEV cleavage site; no cleavage of the tag is told for YfiB; Monomer and dimer in solution (AUC); also called wild-type YfiB; apo YfiB
Turning to B3, the “stoichiometry N” value in data set [3] amounted to 2.

B4: YfiB^L43P (residues 34–168), co-expressed with YfiR (domain or fragment)
chain: GLSAEQIAVPQEQGFELRDEGWEFGMSSKVLFGNNLDRLNPDSRNTLTKIARALLAVDIDKVRLEGHTDNYGDEGYNQKLSERRAESVAAVFREAGMPAANIEVRGLGMSKPVADNKTRAGRSENRRVAIIVPAE
notes: YfiB, P. aeruginosa, residues 34-168, with L43P; residues 44-168 are visible in the complex structure; Two copies in the 2:2 heterotetramer, separated from each other
Regarding B4, the “stoichiometry N” value in data set [4] was 1 YfiB per YfiR (printed as 2:2).
